The values that follow come from patent US20260184778A1 (REGENECORE BIOTECH, published 2026).

What all share (assay): cell-based or functional assay
One test concerns the target IL-5 (human, UniProt P05113 20-134).
Test [1] addresses T1, IL-4Rα (human, UniProt P24394 26-232, limits assumed).
Test [2] has as its target T1, IL-4Rα. The source holds these as a separate data set.

Sequence of IL-5 (P05113 20-134 limits assumed): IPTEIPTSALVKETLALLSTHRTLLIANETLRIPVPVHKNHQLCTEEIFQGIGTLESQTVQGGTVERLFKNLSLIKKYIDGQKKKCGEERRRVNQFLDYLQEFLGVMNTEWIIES

The molecule hIgG (antibody) displayed an EC50 (nM), neutralizing IL-5-induced TF-1 cell proliferation (control) with IL-5 of 0.108 nM.

B1: reslizumab (Tab made by the applicant) (antibody, V domains shown)
VH: EVQLVESGGGLVQPGGSLRLSCAVSGLSLTSNSVNWIRQAPGKGLEWVGLIWSNGDTDYNSAIKSRFTISRDTSKSTVYLQMNSLRAEDTAVYYCAREYYGYFDYWGQGTLVTVSS
VL: DIQMTQSPSSLSASVGDRVTITCLASEGISSYLAWYQQKPGKAPKLLIYGANSLQTGVPSRFSGSGSATDYTLTISSLQPEDFATYYCQQSYKFPNTFGQGTKVEVK
As to B1, the “EC50 (nM), neutralizing IL-5-induced TF-1 cell proliferation” value in the test with IL-5 stood at 0.122 nM.

B2: dupilumab (Tab made by the applicant) (antibody, V domains shown)
VH: EVQLVESGGGLEQPGGSLRLSCAGSGFTFRDYAMTWVRQAPGKGLEWVSSISGSGGNTYYADSVKGRFTISRDNSKNTLYLQMNSLRAEDTAVYYCAKDRLSITIRPRYYGLDVWGQGTTVTVSS
VL: DIVMTQSPLSLPVTPGEPASISCRSSQSLLYSIGYNYLDWYLQKSGQSPQLLIYLGSNRASGVPDRFSGSGSGTDFTLKISRVEAEDVGFYYCMQALQTPYTFGQGTKLEIKR
Consider B2, for which, in the test with IL-4Rα [1], the “EC50(nM), neutralizing IL-13-induced TF-1 proliferation” value is 0.178 nM. Also, the “EC50 (nM), neutralizing IL-4-induced TF-1 proliferation” value in the test with IL-4Rα [2] was found to be 0.13 nM.
